Reference: PMC2810746 (Cell host & microbe, 2009)

Biological target: the molecule itself
Test: immunoblotting of unboiled samples

B1: adenovirus penton base, recombinant, expressed in COS-7 cells (natural protein)
chain: MRRAAMYEEGPPPSYESVVSAAPVAAALGSPFDAPLDPPFVPPRYLRPTGGRNSIRYSELAPLFDTTRVYLVDNKSTDVASLNYQNDHSNFLTTVIQNNDYSPGEASTQTINLDDRSHWGGDLKTILHTNMPNVNEFMFTNKFKARVMVSRLPTKDNQVELKYEWVEFTLPEGNYSETMTIDLMNNAIVEHYLKVGRQNGVLESDIGVKFDTRNFRLGFDPVTGLVMPGVYTNEAFHPDIILLPGCGVDFTHSRLSNLLGIRKRQPFQEGFRITYDDLEGGNIPALLDVDAYQASLKDDTEQGGGGAGGSNSSGSGAEENSNAAAAAMQPVEDMNDHAIRGDTFATRAEEKRAEAEAAAEAAAPAAQPEVEKPQKKPVIKPLTEDSKKRSYNLISNDSTFTQYRSWYLAYNYGDPQTGIRSWTLLCTPDVTCGSEQVYWSLPDMMQDPVTFRSTRQISNFPVVGAELLPVHSKSFYNDQAVYSQLIRQFTSLTHVFNRFPENQILARPPAPTITTVSENVPALTDHGTLPLRNSIGGVQRVTITDARRRTCPYVYKALGIVSPRVLSSRTF
With B1 the “stoichiometry N” value was 5.
